This note sets out measurements from US11759508B2, “Antigenic peptides for treatment of B-cell malignancy” (ENTEROME S.A., priority 2019, dated 2023).

In test [1] the test system is CD8 T cells from PBMCs of HLA-A*02 healthy donors. Description: Detection of antigenic peptide-specific CD8 T cells with pMHC multimers after in vitro amplification. The test is classed as cell-based, human. Particulars: one HLA-A2 healthy donor, after cell amplification (FIG. 17). The source says:
In vitro amplification method and specific pMHC multimers have been used for identification of CD22-B1, CD37-B1, TNFRSF13C-B1 and MS4A1-B4 specific T cells. pMHC multimers were generated for all the bacteria peptides and their respective human counterpart. PBMCs from several HLA-A*02 healthy donors (up to 19 donors) were collected, enriched after CD137 and CD8 selection and subjected to multiple rounds of in vitro amplification with EO2463 peptides loaded T2 cells to increase the number of specific T cell clones. Detection of OMP peptide specific CD8 T cells using cytometry analysis with the fluorescent multimer was performed on enriched CD8 T cell populations

For test [2], the system named is HLA-A2 HHD-DR1 humanized mice. The test can be described thus: ELISPOT-IFNγ on splenocytes of vaccinated HLA-A2 HHD-DR1 transgenic mice. The test is classed as in vivo, mouse. Particulars: prime d0 and boost d14, splenocytes d21, listed as CD22-B2.
The next test concerns the target T1, HLA-A*0201 (Homo sapiens, UniProt P04439, D140Y/D185E/D98H/E176V/E277Q/G131W/G231S/I119V/I121R/I166T/I218V/L300P/L318F/N151K/N90K/P208A/P217A/Q86G/Q94H/R138H/R169H/T345S).
T1 construct: human tumoral cell T2 which expresses the HLA-A*0201 molecule; endogenous in cells; host or cells: T2 cells (human, TAP1/2 negative)
Description: Affinity of the peptide to T2 cell line (HLA-A*0201 expression, FACS, relative to HIV pol 589-597). The test is classed as binding. The note with it: for mean relative fluorescence intensity of T2 cells: normalized to HIV peptide = 100. An excerpt: The experimental protocol is similar to the one that was validated for peptides presented by the HLA-A*0201 (Tourdot et al., A general strategy to enhance immunogenicity of low-affinity HLA-A2.1-associated peptides: implication in the identification of cryptic tumor epitopes. Eur J Immunol. 2000 December; 30(12):3411-21). Affinity measurement of the peptides is achieved with the human tumoral cell T2 which expresses the HLA-A*0201 molecule, but which is TAP ½ negative and incapable of presenting endogenous peptides.
T2 cells (5.104 cells per well) are incubated with decreasing concentrations of peptides from 100 μM to 0.1 μM (4 points: 100 μM, 10 μM, 1 μM, 0.1 μM) in serum-free medium (TexMacs) supplemented with […] of β2 Microglobulin at 37° C. for 16 hours. Cells are then washed two times and marked with the anti-HLA-A2 antibody coupled to PE (clone BB7.2, BD Pharmagen).
The analysis is achieved by FACS (Macsquant analyzer 10-Miltenyi).
For each peptide concentration, the geometric mean of the labelling associated with the peptide of interest is subtracted from background noise and reported as a percentage of the geometric mean of the […] labelling obtained for the reference peptide HIV pol 589-597 at a concentration of 100 μM. […] A2. Solubilisation of Peptides
T2 cells (5.104 cells per well) are incubated with decreasing concentrations of peptides from 100 μM to 0.1 μM (4 points: 100 μM, 10 μM, 1 μM, 0.1 μM) in serum-free medium (TexMacs) supplemented with 100 ng/μl of 32 Microglobulin at 37° C. for 16 hours. Cells are then washed two times and marked with the anti-HLA-A2 antibody coupled to PE (clone BB7.2, BD Pharmagen).
For each peptide concentration, the geometric mean of the labelling associated with the peptide of interest is subtracted from background noise and reported as a percentage of the geometric mean of the […] labelling obtained for the reference peptide HIV pol 589-597 at a concentration of 100 μM.

For the sequence YIFEHPELL (YIFEHPETA) [CD22-B1], in test [1], the “peptide-specific CD8 T cells detected with fluorescent multimer” value was 4.6%. In addition, in test [2], the “immunogenicity (T cell response in ELISPOT-IFNγ after vaccination)” value was “strongly immunogenic”. Further, in the test with HLA-A*0201 (T2 cells, peptide 100-0.1 μM, 16 h, 37° C., anti-HLA-A2 FACS), the “Concentration of peptide that induces 20% of HLA-A2 expression” value came out at 0.16 µM. Moreover, the “In vitro binding affinity* (relative affinity)” value with HLA-A*0201 (normalized against HIV-pol concentration of peptide inducing 20% of HLA-A2 expression in the same experiment) stood at 0.4. Further, the “mean relative fluorescence intensity of T2 cells” value is 0 in the test with HLA-A*0201 (peptide 0.1 (μM)), 81 with HLA-A*0201 (peptide 1 (μM)), 123 with HLA-A*0201 (peptide 10 (μM)) and 164 in the test with HLA-A*0201 (peptide 100 (μM)).
